# Experimental data: PMC12888920, “MMP-9 regulates disulphide isomerase activity of TGM2 to enhance fusion glycoprotein-mediated syncytium formation of respiratory syncytial virus” (Protein & Cell, 2025)
# T1: TGM2 (Homo sapiens, UniProt P21980)
# T1 construct: His tag (inferred from capture on anti-penta-HIS biosensors); purchased MCE (MedChemExpress)
# T1 sequence (P21980 1-687): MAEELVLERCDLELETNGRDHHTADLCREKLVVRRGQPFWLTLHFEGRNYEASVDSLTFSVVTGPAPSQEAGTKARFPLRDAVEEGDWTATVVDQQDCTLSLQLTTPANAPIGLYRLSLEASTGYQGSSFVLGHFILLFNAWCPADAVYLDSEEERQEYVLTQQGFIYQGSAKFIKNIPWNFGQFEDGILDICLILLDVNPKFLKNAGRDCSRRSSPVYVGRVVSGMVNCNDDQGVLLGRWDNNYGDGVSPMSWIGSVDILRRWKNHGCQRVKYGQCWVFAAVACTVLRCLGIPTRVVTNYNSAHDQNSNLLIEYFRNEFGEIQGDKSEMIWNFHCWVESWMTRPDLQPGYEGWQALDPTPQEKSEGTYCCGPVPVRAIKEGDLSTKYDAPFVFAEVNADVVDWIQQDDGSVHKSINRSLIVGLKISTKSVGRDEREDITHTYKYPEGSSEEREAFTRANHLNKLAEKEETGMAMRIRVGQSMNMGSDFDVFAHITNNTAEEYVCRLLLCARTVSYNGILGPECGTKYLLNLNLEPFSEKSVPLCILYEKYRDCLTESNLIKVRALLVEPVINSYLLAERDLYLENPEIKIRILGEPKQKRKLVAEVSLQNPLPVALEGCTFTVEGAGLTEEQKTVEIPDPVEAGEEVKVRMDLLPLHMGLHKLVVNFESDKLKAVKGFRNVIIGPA
# B1: MMP-9: recombinant matrix metalloproteinase 9 protein used as analyte in BLI (protein)
# chain: APRQRQSTLVLFPGDLRTNLTDRQLAEEYLYRYGYTRVAEMRGESKSLGPALLLLQKQLSLPETGELDSATLKAMRTPRCGVPDLGRFQTFEGDLKWHHHNITYWIQNYSEDLPRAVIDDAFARAFALWSAVTPLTFTRVYSRDADIVIQFGVAEHGDGYPFDGKDGLLAHAFPPGPGIQGDAHFDDDELWSLGKGVVVPTRFGNADGAACHFPFIFEGRSYSACTTDGRSDGLPWCSTTANYDTDDRFGFCPSERLYTQDGNADGKPCQFPFIFQGQSYSACTTDGRSDGYRWCATTANYDRDKLFGFCPTRADSTVMGGNSAGELCVFPFTFLGKEYSTCTSEGRGDGRLWCATTSNFDSDKKWGFCPDQGYSLFLVAAHEFGHALGLDHSSVPEALMYPMYRFTEGPPLHKDDVNGIRHLYGPRPEPEPRPPTTTTPQPTAPPTVCPTGPPTVHPSERPTAGPTGPPSAGPTGPPTAGPSTATTVPLSPVDDACNVNIFDAIAEIGNQLYLFKDGKYWRFSEGRGSRPQGPFLIADKWPALPRKLDSVFEERLSKKLFFFSGRQVWVYTGASVLGPRRLDKLGLGADVAQVTGALRSGRGKMLLFSGRRLWRFDVKAQMVDPRSASEVDRMFPGVPLDTHDVFQYREKAYFCQDRFYWRVSSRSELNQVDQVGYVTYDILQCPED
# Experiments:
# TGM2 = molecular target: T1, TGM2; experiment: Biolayer interferometry, MMP-9 binding to TGM2; settings: BLI, purified human proteins, TGM2 immobilized; read-out: dissociation constant (KD), MMP-9 to TGM2
# Method: Figure 6. MMP-9 cleaves TGM2 to potentiate RSV infection. (A) MMP-9–TGM2 interaction. […] Blots represent three independent experiments. (D) Infection-enhanced cleavage. MMP-9-dependent TGM2 proteolysis in HEp-2 cells transfected with HA-TGM2 and siMMP-9, followed by RSV A2 infection (MOI = 1, 72 hpi). TGM2 fragment band intensity was quantified by ImageJ software (gray values). Blots represent three independent experiments. (E) Enzymatic validation. MMP-9 proteolytic activity was measured using fluorogenic substrate Mca-PLGL-Dpa-AR-NH2. The results represent three biological replicates. (F) In vitro cleavage assay. Recombinant TGM2 (2 µg) was incubated with APMA-activated MMP-9 (0.2 µg) for 18 h (37°C, pH 7.5). Cleavage products resolved by SDS-PAGE (10%). Arrows indicate proteolytic fragments. The results represent three biological replicates. (G) Functional rescue. Viral titers (FFA) in HEp-2 cells overexpressing MMP-9, TGM2, or cleavage-resistant mutant (TGM2-P375A) post RSV infection (MOI = 1, 72 hpi). mean ± SD, n = 3. (H) Syncytium rescue. Syncytia area quantification in MMP-9/TGM2-modulated cells (ImageJ software). mean ± SD, n = 3. […]
# (§1) 271 TGM2) were quantified using a Sartorius Octet R4 system. […]
# (§2) 275 equilibration. MMP-9 (MCE) binding was assessed across two concentration ranges: […]
# (§3) 281 (Sartorius) at 20 µg/mL. TGM2 binding was evaluated across 0 –100 µM (7 […]
# RSV F protein (DS-Cav1) = experiment: Biolayer interferometry, MMP-9 binding to RSV F protein (DS-Cav1); design: species or system Respiratory syncytial virus; settings: BLI, DS-Cav1 immobilized; read-out: dissociation constant (KD), MMP-9 to RSV F
# Method: Figure 4. MMP-9 interacts with RSV F protein. (A) MMP-9–F protein interaction analysis. HEK293T cells co-transfected with MMP-9 and RSV F plasmids (48 h) were subjected to co-immunoprecipitation (Co-IP) using anti-F, anti-MMP-9, or IgG control antibodies, followed by immunoblotting with indicated probes. Blots represent three independent experiments. (B) Binding affinity quantification. Biolayer interferometry (BLI) assays using ForteBio Octet measured DS-Cav1 (RSV F prefusion conformation) and MMP-9 interactions. The results represent three biological replicates. (C) Subcellular co-localization. Confocal microscopy of HEp-2 cells transfected with MMP-9 (24 h) ± RSV A2 infection (MOI = 1, 72 hpi). Nuclei (DAPI), MMP-9, and RSV F signals are shown. Scale bar: 20 µm. Images represent three biological replicates. (D) No effect on F protein proteolytic processing. Western blot of RSV F cleavage status in HEK293T cells co-expressing MMP-9 (100–500 ng) and RSV F (500 ng) for 48 h. β-Actin served as loading control. Blots represent three independent experiments. […] They were left out and are not reliably readable. […]
# as §1, §2, §3
molecule,measurement,setting,value
B1,Kd,TGM2,1980 nM
same,Kd,RSV F protein (DS-Cav1),146 nM
